The values below come from the supplement of paper PMC6755084.

Sequences and labels used below:
B1: F1*; the commonest letter at each place (parent)
chain: GAGACCGCAACTGAAAAGTTGTTATCACTTGTCGTAAGACACTTTGGATGGGTTGAAGTTCTGCACGTAGAAGCAAAAGGC

This data set covers variants of B1. Put plainly: fraction ligated after 30 min (ligated reads / total reads); higher = more ligase activity. The conditions noted are these: with F1*sub RNA substrate (template-directed ligation), 42 °C. Put shortly:
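Oligo-pool templates underwent PCR amplification, T7 transcription and gel purification to yield ribozyme variants. Gel-separated ligated and unligated bands were converted to complementary DNA with barcoded primers and sequenced on a MiSeq, keeping core bases of quality ≥20. The ratio of ligated reads to total reads gave the fraction ligated for every variant.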
Regarding GAGACCGCAACTGAAAAGTTGTTATCACTTGTCGTAAGACACTTTGGTTGGGTTGGAGTTCTGCACGTAGAAGCAAAAGGC [A48T A56G], the fraction ligated stood at 0.0654.

Take GAGACCGCAACTGAAAAGTTGTTATCACTTGTCGTAAGACACTTTGGATGGGTTCCTGTTCTGCACGTAGAAGCAAAAGGC [G55C A56C A57T]: the fraction ligated amounted to 0.0335.

Turning to GAGACCGCAACTGAAAAGTTGTTATCACTTGTCGTAAGACACTTTGTATGGGTTGAAGTTCTGCACGTAGAAGCAAAAGGC [G47T], the fraction ligated turned out to be 0.37.

GAGACCGCAACTGAAAAGTTGTTTTGACTTGTCGTAAGACACTTTGGATGGGTTGAAGTTCTGCACGTAGAAGCAAAAGGC [A24T C26G]: the fraction ligated came to 0.201.

Take GAGACCGCAACTGAAAAGTTGTTATCACTTGTCATTAGACACTTTGGATGGGTTGAAGTTCTGCACGTAGAAGCAAAAGGC [G34A A36T]: the fraction ligated was determined as 0.843.

As for GAGACCGCAACTGAAAAGTTGTTATCACTTGTCGTAAGACACCTTGAATGGGTTGAAGTTCTGCACGTAGAAGCAAAAGGC [T43C G47A], the fraction ligated came out at 0.767.

For the variant GAGACCGCAACTGAAAAGTTGTTATCACTTGTCGTAAGAAACTTTGGATGGGTTGAAGTTCTGCACGTAGAAGCAAAAGGC [C40A], the fraction ligated is 0.833.

Turning to GAGACCGCAACTGAAAAGTTGTTATCACTTGTGGTAAGACACTTTGGATCGGTTGAAGTTCTGCACGTAGAAGCAAAAGGC [C33G G50C], the fraction ligated was 0.114.

On to GAGACCGCAACTGAAAAGTTGTTATCACCTGTCGTAAGACACTTTGGATGGGTTGGAGTTCTGCACGTAGAAGCAAAAGGC [T29C A56G], for which the fraction ligated came out at 0.788.

On to GAGACCGCAACTGAAAAGTTGTTATCACTTGTGGTAAGACACTTTGGATGGGTTAAAGTTCTGCACGTAGAAGCAAAAGGC [C33G G55A], for which the fraction ligated is 0.839.

Turning to GAGACCGCAACTGAAAAGTTGTTATCACTTGTCGTAAAAGACTTTGGATGGGTTGAAGTTCTGCACGTAGAAGCAAAAGGC [G38A C40G], the fraction ligated turned out to be 0.843.

Consider GAGACCGCAACTGAAAAGTTGTTATCACTTGTCGTAAAAAACTTTGGATGGGTTGAAGTTCTGCACGTAGAAGCAAAAGGC [G38A C40A], for which the fraction ligated is 0.83.

In the case of GAGACCGCAACTGAAAAGTTGTTATCGCTTGTCGTAAGACATTTTGGATGGGTTGAAGTTCTGCACGTAGAAGCAAAAGGC [A27G C42T], the fraction ligated was 0.817.

Consider GAGACCGCAACTGAAAAGTTGTTATCATTTGTCGTACGACACTTTGGATGGGTTGAAGTTCTGCACGTAGAAGCAAAAGGC [C28T A37C], for which the fraction ligated stood at 0.799.

As for GAGACCGCAACTGAAAAGTTGTTATGACTTGTCGTAAGACATTTTGGATGGGTTGAAGTTCTGCACGTAGAAGCAAAAGGC [C26G C42T], the fraction ligated stood at 0.76.

For the variant GAGACCGCAACTGAAAAGTTGTTATCACTTGTCTCAAGACACTTTGGATGGGTTGAAGTTCTGCACGTAGAAGCAAAAGGC [G34T T35C], the fraction ligated stood at 0.81.

With GAGACCGCAACTGAAAAGTTGTTATCACTTGTCGTAAGACCCTTCGGATGGGTTGAAGTTCTGCACGTAGAAGCAAAAGGC [A41C T45C], the fraction ligated is 0.328.

Turning to GAGACCGCAACTGAAAAGTTGTTATCACTTGTCGTAAAACAGTTTGGATGGGTTGAAGTTCTGCACGTAGAAGCAAAAGGC [G38A C42G], the fraction ligated was found to be 0.837.

Consider GAGACCGCAACTGAAAAGTTGTTATCACGTGTCGTAAGACCCTTTGGATGGGTTGAAGTTCTGCACGTAGAAGCAAAAGGC [T29G A41C], for which the fraction ligated came out at 0.83.

For the variant GAGACCGCAACTGAAAAGTTGTTATCACTTGTCGTAAGATACTTTGGAAGGGTTGAAGTTCTGCACGTAGAAGCAAAAGGC [C40T T49A], the fraction ligated was 0.792.

GAGACCGCAACTGAAAAGTTGTTATCACTTGTGGTAAGACAATTTGGATGGGTTGAAGTTCTGCACGTAGAAGCAAAAGGC [C33G C42A]: the fraction ligated was found to be 0.826.

With GAGACCGCAACTGAAAAGTTGTTATCACTGGTCGTAAGACACTTTGCATGGGTTGAAGTTCTGCACGTAGAAGCAAAAGGC [T30G G47C], the fraction ligated amounted to 0.0588.

For GAGACCGCAACTGAAAAGTTGTTATCACTTGTCGTAAGACACTTTCGATGGGTTAAAGTTCTGCACGTAGAAGCAAAAGGC [G46C G55A], the fraction ligated amounted to 0.804.

For the variant GAGACCGCAACTGAAAAGTTGTTATCACTTGTCTTAAGACACTTTGGCTGGGTTGAAGTTCTGCACGTAGAAGCAAAAGGC [G34T A48C], the fraction ligated was determined as 0.756.

For GAGACCGCAACTGAAAAGTTGTTATCACTTGTCGTAAGACACTTTGCGTGGGTTGAAGTTCTGCACGTAGAAGCAAAAGGC [G47C A48G], the fraction ligated is 0.122.

With GAGACCGCAACTGAAAAGTTGTTATCACTTGTCGTAAGACACTGTGGACGGGTTGAAGTTCTGCACGTAGAAGCAAAAGGC [T44G T49C], the fraction ligated was 0.183.

Consider GAGACCGCAACTGAAAAGTTGTTATCACTTGTAGTAACACACTTTGGATGGGTTGAAGTTCTGCACGTAGAAGCAAAAGGC [C33A G38C], for which the fraction ligated worked out at 0.832.

In the case of GAGACCGCAACTGAAAAGTTGTTTTCACTTGTCGTAAGACACTGTGGATGGGTTGAAGTTCTGCACGTAGAAGCAAAAGGC [A24T T44G], the fraction ligated is 0.196.

Turning to GAGACCGCAACTGAAAAGTTGTTATAACTTGTCGTAAGACACTTTGGACGGGTTGAAGTTCTGCACGTAGAAGCAAAAGGC [C26A T49C], the fraction ligated amounted to 0.0891.

Turning to GAGACCGCAACTGAAAAGTTGTTATCACTTGCCGTAAGACAATTTGGATGGGTTGAAGTTCTGCACGTAGAAGCAAAAGGC [T32C C42A], the fraction ligated came out at 0.826.

On to GAGACCGCAACTGAAAAGTTGTTATCACTTGTCGTAAGACACTTTCGATGGGTTGTAGTTCTGCACGTAGAAGCAAAAGGC [G46C A56T], for which the fraction ligated was determined as 0.447.

Consider GAGACCGCAACTGAAAAGTTGTTATCACTAGTCGTAAGACGCTTTGGATGGGTTGAAGTTCTGCACGTAGAAGCAAAAGGC [T30A A41G], for which the fraction ligated is 0.798.

On to GAGACCGCAACTGAAAAGTTGTTATCACTTGTCGTAAGACATTTTGGTTGGGTTGAAGTTCTGCACGTAGAAGCAAAAGGC [C42T A48T], for which the fraction ligated came to 0.796.

On to GAGACCGCAACTGAAAAGTTGTTATCACTTGTCGTAAGACACTTGGTATGGGTTGAAGTTCTGCACGTAGAAGCAAAAGGC [T45G G47T], for which the fraction ligated was found to be 0.0452.
